# Assay results published in paper PMC7666153, “The phosphorylated regulator of chemotaxis is crucial throughout biofilm biogenesis in Shewanella oneidensis” (NPJ Biofilms and Microbiomes, 2020).
# B1: His-tagged SO4207S (soluble cytoplasmic domain of SO4207, D388 to N625) (domain or fragment, S. oneidensis, UniProt Q8E9Q9 388-625, looked up)
# chain: DERKAKQRIQQEALKQAQKIRSAREEALKVEAETNERLEQKVQERTLELEITLRELHEVNQKLTEQSTIDSLTGVKNRSAFDKRLLAESRISRRQETPIALLMLDIDRFKSINDQFGHLAGDQALKLIAQTLQQHLKRPTDLVSRFGGEEFAIILPNTTADGALQVAESIRDTVSCIGLTWEGKPIPLTVSIGVSADVIMNEQHSTELLEQADKALYQAKNSGRNQVKLYAPAQTEPN
# notes: diguanylate cyclase SO4207 of Shewanella oneidensis, cytoplasmic domain D388 to N625, devoid of the transmembrane segments; Cloned into pET21b; printed mass 30 kDa; also called pET-SO4207S; source: E. coli BL21 (DE3), purified (HisTrapFF); not shown: 6xHis-tag, C-terminal, kept
# Biological target: the molecule itself
# Assay: cross-linking; Strep-tagged CheY3 (11.8 µM) and His-tagged SO4207S (3.1 µM), together or separately, 5 mM EDC, 1 h at room temperature, 10 mM cacodylate buffer; SDS-PAGE and blot with HisProbe-HRP
protein,measurement,value
B1,stoichiometry N,2
